# In US20210070840A1 (Bristol-Myers Squibb, published 2021):
# T1: human IL-23 (human, UniProt P29460 23-328; Q9NPF7 20-189)
# T1 construct: Secreted from Sf9 cells for the crystal structure; One molecule is used for all three; also called Interleukin-23
# T1 sequence (looked up) 1: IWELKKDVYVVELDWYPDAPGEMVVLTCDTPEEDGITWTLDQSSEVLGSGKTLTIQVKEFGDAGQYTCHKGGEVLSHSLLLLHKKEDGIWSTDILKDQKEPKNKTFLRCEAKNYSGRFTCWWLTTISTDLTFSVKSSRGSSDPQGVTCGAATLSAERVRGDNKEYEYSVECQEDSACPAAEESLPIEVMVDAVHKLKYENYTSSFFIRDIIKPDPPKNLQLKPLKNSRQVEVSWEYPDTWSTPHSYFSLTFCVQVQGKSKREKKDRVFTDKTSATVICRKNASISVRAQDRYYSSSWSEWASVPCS
# T1 sequence (looked up) 2: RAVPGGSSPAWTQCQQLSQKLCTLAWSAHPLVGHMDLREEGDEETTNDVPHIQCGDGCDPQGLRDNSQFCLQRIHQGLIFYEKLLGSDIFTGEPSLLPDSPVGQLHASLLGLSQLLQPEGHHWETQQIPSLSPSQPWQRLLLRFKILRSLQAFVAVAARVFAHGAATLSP
# B1: Adnectin 2 (designed binder)
# chain: MGVSDVPRDLEVVAATPTSLLISWEHDYPYRRYYRITYGETGGNSPVQEFTVPKDVDTATISGLKPGVDYTITVYAVTSSYKYDMQYSPISINYRTEIDKPSQHHHHHH
# notes: also called anti-IL-23 Adnectin; ATI-000929
# B2: Adnectin 2 V75→Y (designed binder)
# chain: MGVSDVPRDLEVVAATPTSLLISWEHDYPYRRYYRITYGETGGNSPVQEFTVPKDVDTATISGLKPGVDYTITVYAYTSSYKYDMQYSPISINYRTEIDKPSQHHHHHH
# B3: Adnectin 2 T35→D (designed binder)
# chain: MGVSDVPRDLEVVAATPTSLLISWEHDYPYRRYYRIDYGETGGNSPVQEFTVPKDVDTATISGLKPGVDYTITVYAVTSSYKYDMQYSPISINYRTEIDKPSQHHHHHH
# B4: Adnectin 2 V45→D (designed binder)
# chain: MGVSDVPRDLEVVAATPTSLLISWEHDYPYRRYYRITYGETGGNSPDQEFTVPKDVDTATISGLKPGVDYTITVYAVTSSYKYDMQYSPISINYRTEIDKPSQHHHHHH
# B5: Adnectin 2 Y73→A (designed binder)
# chain: MGVSDVPRDLEVVAATPTSLLISWEHDYPYRRYYRITYGETGGNSPVQEFTVPKDVDTATISGLKPGVDYTITVAAVTSSYKYDMQYSPISINYRTEIDKPSQHHHHHH
# B6: Adnectin 2 Y81→A (designed binder)
# chain: MGVSDVPRDLEVVAATPTSLLISWEHDYPYRRYYRITYGETGGNSPVQEFTVPKDVDTATISGLKPGVDYTITVYAVTSSYKADMQYSPISINYRTEIDKPSQHHHHHH
# B7: Adnectin 2 V45→Q (designed binder)
# chain: MGVSDVPRDLEVVAATPTSLLISWEHDYPYRRYYRITYGETGGNSPQQEFTVPKDVDTATISGLKPGVDYTITVYAVTSSYKYDMQYSPISINYRTEIDKPSQHHHHHH
# B8: Adnectin 2 T35→E (designed binder)
# chain: MGVSDVPRDLEVVAATPTSLLISWEHDYPYRRYYRIEYGETGGNSPVQEFTVPKDVDTATISGLKPGVDYTITVYAVTSSYKYDMQYSPISINYRTEIDKPSQHHHHHH
# B9: Adnectin 2 P87→A (designed binder)
# chain: MGVSDVPRDLEVVAATPTSLLISWEHDYPYRRYYRITYGETGGNSPVQEFTVPKDVDTATISGLKPGVDYTITVYAVTSSYKYDMQYSAISINYRTEIDKPSQHHHHHH
# B10: Adnectin 2 V75→K (designed binder)
# chain: MGVSDVPRDLEVVAATPTSLLISWEHDYPYRRYYRITYGETGGNSPVQEFTVPKDVDTATISGLKPGVDYTITVYAKTSSYKYDMQYSPISINYRTEIDKPSQHHHHHH
# B11: Adnectin 2 V75→Q (designed binder)
# chain: MGVSDVPRDLEVVAATPTSLLISWEHDYPYRRYYRITYGETGGNSPVQEFTVPKDVDTATISGLKPGVDYTITVYAQTSSYKYDMQYSPISINYRTEIDKPSQHHHHHH
# B12: Adnectin 2 V45→E (designed binder)
# chain: MGVSDVPRDLEVVAATPTSLLISWEHDYPYRRYYRITYGETGGNSPEQEFTVPKDVDTATISGLKPGVDYTITVYAVTSSYKYDMQYSPISINYRTEIDKPSQHHHHHH
# B13: Adnectin 2 T35→N (designed binder)
# chain: MGVSDVPRDLEVVAATPTSLLISWEHDYPYRRYYRINYGETGGNSPVQEFTVPKDVDTATISGLKPGVDYTITVYAVTSSYKYDMQYSPISINYRTEIDKPSQHHHHHH
# B14: Adnectin 2 Y73→N (designed binder)
# chain: MGVSDVPRDLEVVAATPTSLLISWEHDYPYRRYYRITYGETGGNSPVQEFTVPKDVDTATISGLKPGVDYTITVNAVTSSYKYDMQYSPISINYRTEIDKPSQHHHHHH
# B15: Adnectin 2 T35→Q (designed binder)
# chain: MGVSDVPRDLEVVAATPTSLLISWEHDYPYRRYYRIQYGETGGNSPVQEFTVPKDVDTATISGLKPGVDYTITVYAVTSSYKYDMQYSPISINYRTEIDKPSQHHHHHH
# B16: Adnectin 2 V45→N (designed binder)
# chain: MGVSDVPRDLEVVAATPTSLLISWEHDYPYRRYYRITYGETGGNSPNQEFTVPKDVDTATISGLKPGVDYTITVYAVTSSYKYDMQYSPISINYRTEIDKPSQHHHHHH
# B17: Adnectin 2 Y28→A (designed binder)
# chain: MGVSDVPRDLEVVAATPTSLLISWEHDYPARRYYRITYGETGGNSPVQEFTVPKDVDTATISGLKPGVDYTITVYAVTSSYKYDMQYSPISINYRTEIDKPSQHHHHHH
# B18: Adnectin 2 Y73→R (designed binder)
# chain: MGVSDVPRDLEVVAATPTSLLISWEHDYPYRRYYRITYGETGGNSPVQEFTVPKDVDTATISGLKPGVDYTITVRAVTSSYKYDMQYSPISINYRTEIDKPSQHHHHHH
# B19: Adnectin 2 Y73→Q (designed binder)
# chain: MGVSDVPRDLEVVAATPTSLLISWEHDYPYRRYYRITYGETGGNSPVQEFTVPKDVDTATISGLKPGVDYTITVQAVTSSYKYDMQYSPISINYRTEIDKPSQHHHHHH
# Columns and labels:
# [1] = target: T1, human IL-23; assay: ratio of competition ELISA IC50, parent/mutant
# [2] = target: T1, human IL-23; assay: competition ELISA: Adnectin + 1 nM IL-23 on coated IL-23R-Fc
# [3] = target: T1, human IL-23; assay: SPR (Biacore T100), immobilized human IL-23, single cycle kinetics
binder,measurement,setting,value
B1,Activity (parent/mutant),[1],1 ratio
same,IC50,[2],1 nM
same,Kd,[3],2 nM
B2,Activity (parent/mutant),[1],0.4 ratio
same,IC50,[2],2.2 nM
B3,Activity (parent/mutant),[1],0.02 ratio
same,IC50,[2],49 nM
B4,Activity (parent/mutant),[1],1.2 ratio
same,IC50,[2],0.83 nM
B5,Activity (parent/mutant),[1],1.5 ratio
same,IC50,[2],0.65 nM
B6,Activity (parent/mutant),[1],0.03 ratio
same,IC50,[2],35 nM
B7,Activity (parent/mutant),[1],2.9 ratio
same,IC50,[2],0.34 nM
B8,Activity (parent/mutant),[1],1.7 ratio
same,IC50,[2],0.6 nM
B9,Activity (parent/mutant),[1],0.1 ratio
same,IC50,[2],8.3 nM
B10,Activity (parent/mutant),[1],0.2 ratio
same,IC50,[2],5.7 nM
B11,Activity (parent/mutant),[1],0.4 ratio
same,IC50,[2],2.3 nM
B12,Activity (parent/mutant),[1],1.9 ratio
same,IC50,[2],0.51 nM
B13,Activity (parent/mutant),[1],0.6 ratio
same,IC50,[2],1.7 nM
B14,Activity (parent/mutant),[1],0.8 ratio
same,IC50,[2],1.2 nM
B15,Activity (parent/mutant),[1],1 ratio
same,IC50,[2],1 nM
B16,Activity (parent/mutant),[1],1.8 ratio
same,IC50,[2],0.54 nM
B17,Activity (parent/mutant),[1],0.08 ratio
same,IC50,[2],13 nM
B18,Activity (parent/mutant),[1],0.8 ratio
same,IC50,[2],1.2 nM
B19,Activity (parent/mutant),[1],3.8 ratio
same,IC50,[2],0.26 nM
